According to PMC2905227 (Journal of the American Chemical Society, 2010):
Positions count from the first letter of the chain named.

Assays:
Test in all cases: competitive inhibition of enzyme activity
[NO2Y731]-α2(Y730F) = biological target: T1, [NO2Y731]-α2(Y730F) (E. coli, UniProt P00452 1-761, Y730F, 3-nitrotyrosine (NO2Y) in place of Y731)
T1 sequence (looked up): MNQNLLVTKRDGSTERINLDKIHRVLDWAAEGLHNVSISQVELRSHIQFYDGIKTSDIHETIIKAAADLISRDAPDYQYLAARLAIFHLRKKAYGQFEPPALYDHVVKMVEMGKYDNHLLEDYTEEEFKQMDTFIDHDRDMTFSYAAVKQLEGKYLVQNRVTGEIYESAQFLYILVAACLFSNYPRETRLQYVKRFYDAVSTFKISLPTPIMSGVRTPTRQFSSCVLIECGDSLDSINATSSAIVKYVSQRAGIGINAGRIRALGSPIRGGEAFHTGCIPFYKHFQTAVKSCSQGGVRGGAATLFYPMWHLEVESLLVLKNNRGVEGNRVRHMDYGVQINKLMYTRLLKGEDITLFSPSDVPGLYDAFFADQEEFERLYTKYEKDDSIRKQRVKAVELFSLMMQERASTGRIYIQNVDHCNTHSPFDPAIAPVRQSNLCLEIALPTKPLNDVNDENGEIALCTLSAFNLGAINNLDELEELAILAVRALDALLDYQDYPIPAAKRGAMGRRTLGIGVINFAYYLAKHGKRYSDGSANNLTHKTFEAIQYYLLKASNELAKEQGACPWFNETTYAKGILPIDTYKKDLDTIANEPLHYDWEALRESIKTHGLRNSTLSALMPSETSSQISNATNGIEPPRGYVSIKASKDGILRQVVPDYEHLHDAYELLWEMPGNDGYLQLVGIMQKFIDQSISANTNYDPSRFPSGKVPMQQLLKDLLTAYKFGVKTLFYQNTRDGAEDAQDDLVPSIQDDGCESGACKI

[NO2Y730]-α2(Y731F) = biological target: T2, [NO2Y730]-α2(Y731F) (E. coli, UniProt P00452 1-761, Y731F, 3-nitrotyrosine (NO2Y) in place of Y730)
T2 sequence (looked up): T1 sequence (looked up) with F730Y, Y731F

[NO2Y730]-α2(Y731A) = biological target: T3, [NO2Y730]-α2(Y731A) (E. coli, UniProt P00452 1-761, Y731A, 3-nitrotyrosine (NO2Y) in place of Y730)
T3 sequence (looked up): T1 sequence (looked up) with F730Y, Y731A

Kd ([NO2Y731]-α2(Y730F)): 500 ± 40 nM
Kd ([NO2Y730]-α2(Y731F)): 1450 ± 140 nM
Kd ([NO2Y730]-α2(Y731A)): 2710 ± 130 nM
B1: wild-type E. coli ribonucleotide reductase β2 subunit (enzyme, UniProt P69924 1-376, looked up)
chain: MAYTTFSQTKNDQLKEPMFFGQPVNVARYDQQKYDIFEKLIEKQLSFFWRPEEVDVSRDRIDYQALPEHEKHIFISNLKYQTLLDSIQGRSPNVALLPLISIPELETWVETWAFSETIHSRSYTHIIRNIVNDPSVVFDDIVTNEQIQKRAEGISSYYDELIEMTSYWHLLGEGTHTVNGKTVTVSLRELKKKLYLCLMSVNALEAIRFYVSFACSFAFAERELMEGNAKIIRLIARDEALHLTGTQHMLNLLRSGADDPEMAEIAEECKQECYDLFVQAAQQEKDWADYLFRDGSMIGLNKDILCQYVEYITNIRMQAVGLDLPFQTRSNPIPWINTWLVSDNVQVAPQEVEVSSYLVGQIDSEVDTDDLSNFQL
modifications: tyrosyl radical at Y122 (1-1.2 radicals per β2), diferric cluster
